Reference: PMC11756389

Tests used:
[1] = target: T1, paired immunoglobulin-like receptor B (PIR-B), C-terminal biotinylated (mouse), P97484; experiment: SPR
T1 chain: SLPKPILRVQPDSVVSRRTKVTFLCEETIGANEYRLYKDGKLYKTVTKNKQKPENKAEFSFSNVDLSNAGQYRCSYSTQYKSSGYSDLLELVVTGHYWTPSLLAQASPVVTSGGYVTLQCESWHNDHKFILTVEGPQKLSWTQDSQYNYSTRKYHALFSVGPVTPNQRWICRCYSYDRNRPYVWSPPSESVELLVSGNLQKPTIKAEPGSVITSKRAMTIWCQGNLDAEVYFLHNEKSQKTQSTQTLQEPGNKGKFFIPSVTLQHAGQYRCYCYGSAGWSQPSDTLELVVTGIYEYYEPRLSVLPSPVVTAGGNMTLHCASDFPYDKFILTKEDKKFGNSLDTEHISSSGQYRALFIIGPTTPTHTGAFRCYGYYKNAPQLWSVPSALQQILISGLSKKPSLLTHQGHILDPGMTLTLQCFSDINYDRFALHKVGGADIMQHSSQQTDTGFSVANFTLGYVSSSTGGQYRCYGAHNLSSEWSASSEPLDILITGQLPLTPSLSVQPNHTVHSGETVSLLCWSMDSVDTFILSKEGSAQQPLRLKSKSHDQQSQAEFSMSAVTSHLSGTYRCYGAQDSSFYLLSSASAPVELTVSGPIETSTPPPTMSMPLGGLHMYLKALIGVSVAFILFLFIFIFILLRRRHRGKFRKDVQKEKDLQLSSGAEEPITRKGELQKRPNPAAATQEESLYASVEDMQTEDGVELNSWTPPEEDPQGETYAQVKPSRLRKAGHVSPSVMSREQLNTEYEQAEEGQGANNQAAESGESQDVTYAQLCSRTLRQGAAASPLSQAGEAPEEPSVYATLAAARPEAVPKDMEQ

[2] = target: two N-terminal domains (D1D2) of LILRB2 with a C-terminal biotinylation tag, biotinylated (human); experiment: SPR

specific binding response at 6.2 μM [1]: 100 RU | Kd [2]: 0.041 to 0.064 pM
B1: soluble HLA-G2 homodimer (non-PEGylated) (domain or fragment)
chain: GSHSMRYFSAAVSRPGRGEPRFIAMGYVDDTQFVRFDSDSACPRMEPRAPWVEQEGPEYWEEETRNTKAHAQTDRMNLQTLRGYYNQSEANPPKTHVTHHPVFDYEATLRCWALGFYPAEIILTWQRDGEDQTQDVELVETRPAGDGTFQKWAAVVVPSGEEQRYTCHVQHEGLPEPLMLRW
modifications: not checked
